Data as given in the supplement of paper PMC10567573.
± gives the standard deviation.

Experiment: protein stability index of a GFP-peptide fusion (GPS, HEK-293T) (PSI 1-6); higher = more stable
Settings: c terminus: a fixed tail appended
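Note: 24-mer peptide tiles fused after GFP, lentivirally expressed, FACS-sorted into six equal bins by GFP/DsRed ratio, decoded by Illumina sequencing, PSI is the read-weighted mean bin number.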

| Sequence | protein stability index (treatment: DMSO) | protein stability index (treatment: MLN4924 1 uM, 8 h) |
| --- | --- | --- |
| PGETRRNSYPRADTGLFSRSKSGS [TRIM29] | 4.73 ± 0.18 | 5.01 ± 0.47 |
| RVRGRVGTIRPVRCPSSSLHMSQR [C22orf15] | 3.14 ± 0.28 | 3.57 ± 0.19 |
| TLLAIGTKLPENQAIQMRLVDVAC [INTS4] | 2.12 ± 0.19 | 2.09 ± 0.15 |
| LRLPMLNTEVVQVAAGRTQKAGVT [NEK8] | 3.1 ± 0.33 | 3.47 ± 0.23 |
| NLLPAAGELQESGLALCPEVQDLL [SMG5] | 4.26 ± 0.21 | 4.31 ± 0.13 |
| SAAVRGHPRALPPDARPHRRPHEL [HAGHL] | 4.404 ± 0.036 | 4.47 ± 0.13 |
| EVLLASLANPVLESTPVGTVVGLF [PCDHGC5] | 2.53 ± 0.51 | 2.33 ± 0.43 |
| AASPGEAPAASEGAAAPATPTPVA [SNAP91] | 5.38 ± 0.15 | 5.53 ± 0.25 |
| GQWLGGRQIRTNWATRKPPAPKST [TIA1] | 3.57 ± 0.3 | 3.73 ± 0.34 |
| ECKHPSVFQHGDNSFRLLFDVVVI [MCOLN1] | 2.9 ± 0.48 | 3.02 ± 0.71 |
| QRIHAAERLCMGVDCTEIFGGNPR [ZNF263] | 3.36 ± 0.27 | 3.38 ± 0.31 |
| KRKRVDVEESEASSSVSISHSASA [LMNB1] | 5.29 ± 0.29 | 5.42 ± 0.17 |
| FVSIAQSEQESLLQQAQAQFRMAQ [SMG5] | 2.68 ± 0.31 | 3.08 ± 0.47 |
| MYKLSSEQFHEAASKMESTIKPRR [CHCHD6] | 3.72 ± 0.53 | 4.07 ± 0.64 |
| IYTHFTCATDTKNVQFVFDAVTDV [GNAI1] | 2.55 ± 0.46 | 3.28 ± 1.5 |
| PWKEETFLVLQSLLERQVEMTPEK [FANCE] | 3 ± 0.22 | 3.08 ± 0.27 |
| TAAASRERQEEQSAAIHISETLEQ [EPB41L3] | 5.5 ± 0.061 | 5.4 ± 0.52 |
| PIRSISLRSCYFSDPDCSMRPTLI [FBXO39] | 2.13 ± 0.36 | 2.07 ± 0.27 |
| ALQNKDTYEPFCKVPVITSSKEEQ [KCTD10] | 4.4 ± 0.14 | 4.5 ± 0.16 |
| TVPGQALACGSNRFNKLGLDHLSL [NEK8] | 2.44 ± 0.34 | 2.45 ± 0.12 |
| MPATPSLKVVHELPACTLCAGPLE [TRIM15] | 3.95 ± 0.28 | 4.03 ± 0.2 |
| CLRKYGNANVWKYFTDLFDYLPLT [PPP2CA] | 2.4 ± 0.57 | 2 ± 0.31 |
| LALPPGAEHWTKEHCGAVCFVKDN [WAS] | 3.35 ± 0.23 | 3.45 ± 0.59 |

| Sequence | protein stability index (treatment: DMSO) | protein stability index (treatment: MLN4924 1 uM, 8 h) |
| --- | --- | --- |
| LPDPREACGSSSYVASIVDGGESR [RBMY1A1] | 4.74 ± 0.24 | 4.64 ± 0.14 |
| RRPVNVPLDMFSEEIKFYELGEEA [KCNA1] | 3.62 ± 0.33 | 3.84 ± 0.17 |
| PANVDASVMFRKWRDSKGKDKEYA [UBE2R2] | 4.09 ± 0.27 | 3.95 ± 0.24 |
| RKDPYGKPVDMWACGVILYILLVG [CAMK2D] | 2.53 ± 0.12 | 3.04 ± 1.1 |
| RATNHLDQVPSMQDGSESFFFRHG [SPAG8] | 3.51 ± 0.1 | 3.62 ± 0.28 |
| EDNLSLVCLPRSEDDDCDDDDDDD [DRICH1] | 5.48 ± 0.42 | 5.51 ± 0.075 |
| TQQFKAEKLKEKLKMKEREEAWVK [PPP2R5C] | 3.26 ± 0.64 | 3.72 ± 0.62 |
| NYTNPLKVQTVIILGKVILWILHL [TMEM192] | 2.08 ± 0.19 | 2.15 ± 0.24 |
| IDRNLREDGEKAAREVKLLLLGAG [GNAI1] | 3.67 ± 0.23 | 3.58 ± 0.096 |
| RQDSPSPDFYKQSSPNLQVSSDGT [PCDHGC5] | 4.86 ± 0.34 | 4.88 ± 0.18 |
| FSGSLVAALSATGPRFLAYFGSFA [TMEM175] | 2.91 ± 0.11 | 2.61 ± 0.37 |
| LRKSDMLEKEQVAHIRAERDILVE [STK38L] | 3.8 ± 0.35 | 4.17 ± 0.13 |
| RNPDQRKESLCISITVSKVDKDQP [FBXO34] | 3.6 ± 0.41 | 3.88 ± 0.24 |
| DNHMSDKDESCYDNAEAAFSDDEE [INTS3] | 5.55 ± 0.18 | 5.29 ± 0.38 |
| EEEDDDDIHITARIESDLTLESLS [DRICH1] | 5.16 ± 0.12 | 5.16 ± 0.083 |
| VWDLNMEARPIETYQVHDYLRSKL [PPP2R2C] | 2.42 ± 0.43 | 2.55 ± 0.095 |
| NMNDNFLEGEEENELTLNEKNFFP [CHGB] | 4.71 ± 0.16 | 4.81 ± 0.14 |
| PNLASDSDLSRRSSSTMSKSEYME [KCNA1] | 5.16 ± 0.27 | 5.22 ± 0.16 |
| HLTKKDLRVHLKMVDSFHRTSLQY [PPFIA4] | 2.24 ± 0.25 | 2.11 ± 0.41 |
| MASPCSAMAYHHDSRRIFVGQDNG [WDFY1] | 2.64 ± 0.18 | 2.67 ± 0.11 |
| TGEIMHALKMTWHVHCFTCAACKT [PDLIM7] | 2.69 ± 0.33 | 2.27 ± 0.25 |
| APKGKGRKPAAGAQSAGTQQVAAV [BRD3] | 4.98 ± 0.33 | 5.04 ± 0.24 |
